The source of these data is patent US20050163796A1.

B1: R10LL (peptide)
peptide: RPVVSTQLLL
modifications: not checked
B2: T9PL (peptide)
peptide: TPKKIKPPL
modifications: not checked
B3: L9RL (peptide)
peptide: LPLPPLDRL
modifications: not checked
B4: Q10AL (peptide)
peptide: QPIQIAIAAL
modifications: not checked
B5: L9TL (peptide)
peptide: LPPLDRLTL
modifications: not checked
B6: K10KL (peptide)
peptide: KPPLPSVTKL
modifications: not checked
B7: S10EV (peptide)
peptide: SPHPRISSEV
modifications: not checked
B8: I10VI (peptide)
peptide: IPLGDARLVI
modifications: not checked
B9: A10VV (peptide)
peptide: APTKAKRRVV
modifications: not checked
B10: P10QV (peptide)
peptide: PPQGSQTHQV
modifications: not checked
B11: H10HI (peptide)
peptide: HPRISSEVHI
modifications: not checked
B12: Y10LF (peptide)
peptide: YPLASLRSLF
modifications: not checked
B13: A9RL (peptide)
peptide: AAISPVLRL
modifications: not checked
B14: Q9VF (peptide)
peptide: QPRSDTHVF
modifications: not checked
B15: S10PV (peptide)
peptide: SPVLRLRPPV
modifications: not checked
B16: M9PT (peptide)
peptide: MPVYPQTPT
modifications: not checked
B17: Q10QM (peptide)
peptide: QPPLYFVHQM
modifications: not checked
B18: G10QT (peptide)
peptide: GPHMPVYPQT
modifications: not checked

The first test deals with HLA-B*0702 on HLA-B*0702 transfected TAP- T2 cells (human). The experiment in a line: HLA-B*0702 stabilisation on T2-B*0702 cells, FACS with ME.1 mAb; concentration to reach 20% of maximal fluorescence relative to R10V. Conditions: scale: ratio of concentrations, tested peptide / R10V reference.
As for B1, the RA (relative affinity) was 2.25.
Same read-out and setting: then B2, with 1.29.
Same read-out and setting: then B3, with 6.13.
For the molecule B4, the RA (relative affinity) stood at 6.5.
On the same count and under the same terms, then B5, with 3.51; and B6, with 3.55; and B7, with 1.11.
Turning to B8, the RA (relative affinity) came to 2.33.
Still for that read-out and setting: then B9, with 1.14; and B10, with 8.97; and B11, with 3.7.

The target is the same in a further test.
Test: not given
Settings: not given
The molecule B12 came in with an RA (relative affinity) of 3.25.

The test is the same for the next values; noted with them: scale: ratio of concentrations, tested peptide / R10V reference.
Turning to B13, the RA (relative affinity) was 15.
On the same count and under the same terms, then B14, with 1.56; and B15, with 0.85; and B16, with 0.94.
On the same count and under the same terms, then B17, with 49; and B18, with 22.
